Source: the supplement of paper PMC9112550, “Optimization of the antimicrobial peptide Bac7 by deep mutational scanning” (BMC Biology, 2022)

Test system: Escherichia coli TOP10
Assay: shrunken log2 fold change of peptide-encoding DNA abundance (4.5 h post-induction vs induction); higher = less antimicrobial activity (less host growth inhibition)
Conditions: time post-induction: 4.5 h; library: site-saturation at positions 5, 18, 19, 20
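Also: peptides expressed intracellularly from a pBAD plasmid library in pooled LB shake-flask culture, induced with 0.3% L-arabinose, DNA abundance read by NGS, three biological replicates, DESeq2 with apeglm shrinkage.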

Row | Sequence | shrunken log2 fold change
1 | RRIRHRPPRLPRPRPRPLSMPRP | -0.396
2 | RRIRARPPRLPRPRPRPALQPRP | 0.354
3 | RRIRTRPPRLPRPRPRPHMPPRP | -0.422
4 | RRIRLRPPRLPRPRPRPFGPPRP | 0.0996
5 | RRIRRRPPRLPRPRPRPMKQPRP | 0.134
6 | RRIRSRPPRLPRPRPRPHGEPRP | -0.0153
7 | RRIRSRPPRLPRPRPRPTHFPRP | -0.0655
8 | RRIRPRPPRLPRPRPRPEKWPRP | 0.0413
9 | RRIRHRPPRLPRPRPRPVSMPRP | -0.0784
10 | RRIRPRPPRLPRPRPRPGGHPRP | 0.372
11 | RRIRHRPPRLPRPRPRPLQLPRP | -0.213
12 | RRIRHRPPRLPRPRPRPDCDPRP | -0.243
13 | RRIRGRPPRLPRPRPRPEVTPRP | 0.168
14 | RRIRYRPPRLPRPRPRPAFAPRP | -0.0121
15 | RRIRKRPPRLPRPRPRPWPQPRP | 0.0865
16 | RRIRCRPPRLPRPRPRPQTRPRP | 0.471
17 | RRIRERPPRLPRPRPRPIRSPRP | -0.112
18 | RRIRFRPPRLPRPRPRPVNQPRP | -0.188
19 | RRIRKRPPRLPRPRPRPLFDPRP | -0.0965
20 | RRIRTRPPRLPRPRPRPIYLPRP | -0.224
21 | RRIRKRPPRLPRPRPRPQNKPRP | 0.0275
22 | RRIRERPPRLPRPRPRPTVLPRP | -0.0263
23 | RRIRLRPPRLPRPRPRPQAFPRP | 0.0474

Row | Sequence | shrunken log2 fold change
24 | RRIRKRPPRLPRPRPRPDDSPRP | -0.0813
25 | RRIRHRPPRLPRPRPRPDQYPRP | 0.0188
26 | RRIRPRPPRLPRPRPRPPSWPRP | 0.54
27 | RRIRYRPPRLPRPRPRPTSGPRP | 0.0452
28 | RRIRWRPPRLPRPRPRPDKTPRP | -0.0185
29 | RRIRERPPRLPRPRPRPQCFPRP | -0.702
30 | RRIRFRPPRLPRPRPRPLMMPRP | -0.347
31 | RRIRERPPRLPRPRPRPYFKPRP | -0.258
32 | RRIRFRPPRLPRPRPRPKLEPRP | -0.0492
33 | RRIRMRPPRLPRPRPRPQMYPRP | -0.24
34 | RRIRYRPPRLPRPRPRPFQIPRP | -0.0359
35 | RRIRSRPPRLPRPRPRPTAVPRP | 0.466
36 | RRIRGRPPRLPRPRPRPCWMPRP | 0.301
37 | RRIRWRPPRLPRPRPRPEEYPRP | 0.113
38 | RRIRDRPPRLPRPRPRPMSGPRP | -0.0837
39 | RRIRYRPPRLPRPRPRPSMVPRP | -0.858
40 | RRIRFRPPRLPRPRPRPEWAPRP | 0.398
41 | RRIRFRPPRLPRPRPRPNYIPRP | -0.587
42 | RRIRWRPPRLPRPRPRPYQGPRP | -0.0161
43 | RRIRRRPPRLPRPRPRPDHHPRP | -0.254
44 | RRIRGRPPRLPRPRPRPSYYPRP | 0.118
45 | RRIRPRPPRLPRPRPRPKYGPRP | -0.491
46 | RRIRKRPPRLPRPRPRPRSDPRP | 0.197

Row | Sequence | shrunken log2 fold change
47 | RRIRYRPPRLPRPRPRPPQSPRP | -0.118
48 | RRIRMRPPRLPRPRPRPKYFPRP | -0.186
49 | RRIRDRPPRLPRPRPRPPLGPRP | 0.547
50 | RRIRTRPPRLPRPRPRPKTSPRP | -0.0907
51 | RRIRSRPPRLPRPRPRPMWKPRP | -0.101
52 | RRIRFRPPRLPRPRPRPSRCPRP | -0.0633
53 | RRIRGRPPRLPRPRPRPTARPRP | 1.27
54 | RRIRERPPRLPRPRPRPYNHPRP | -0.272
55 | RRIRGRPPRLPRPRPRPETHPRP | 2.22
56 | RRIRTRPPRLPRPRPRPFLQPRP | 0.0237
57 | RRIRRRPPRLPRPRPRPASDPRP | -0.0475
58 | RRIRERPPRLPRPRPRPAWHPRP | 0.324
59 | RRIRWRPPRLPRPRPRPCHNPRP | -1.64
60 | RRIRHRPPRLPRPRPRPNWNPRP | -0.451
61 | RRIRIRPPRLPRPRPRPRPAPRP | 0.286
62 | RRIRKRPPRLPRPRPRPSFWPRP | 0.299
63 | RRIRSRPPRLPRPRPRPNECPRP | -0.136
64 | RRIRKRPPRLPRPRPRPQCIPRP | -0.149
65 | RRIRHRPPRLPRPRPRPLWDPRP | -0.15
66 | RRIRERPPRLPRPRPRPISRPRP | -0.0122
67 | RRIRTRPPRLPRPRPRPCPTPRP | 0.0552
68 | RRIRFRPPRLPRPRPRPCMAPRP | -0.594
69 | RRIRMRPPRLPRPRPRPYNFPRP | -0.363

Row | Sequence | shrunken log2 fold change
70 | RRIRNRPPRLPRPRPRPKHDPRP | -0.287
71 | RRIRQRPPRLPRPRPRPHKTPRP | -0.146
72 | RRIRVRPPRLPRPRPRPVDMPRP | 0.00782
73 | RRIRWRPPRLPRPRPRPNVWPRP | -0.308
74 | RRIRERPPRLPRPRPRPMWIPRP | -0.102
75 | RRIRTRPPRLPRPRPRPVDDPRP | -0.018
76 | RRIRVRPPRLPRPRPRPEHCPRP | 0.404
77 | RRIRMRPPRLPRPRPRPNVMPRP | -0.108
78 | RRIRNRPPRLPRPRPRPGYLPRP | 0.114
79 | RRIRKRPPRLPRPRPRPMTEPRP | 0.0103
80 | RRIRERPPRLPRPRPRPSVDPRP | -0.318
81 | RRIRDRPPRLPRPRPRPAYHPRP | -0.263
82 | RRIRGRPPRLPRPRPRPTVYPRP | 0.185
83 | RRIRARPPRLPRPRPRPDSLPRP | 0.0733
84 | RRIRTRPPRLPRPRPRPYSDPRP | -0.148
85 | RRIRVRPPRLPRPRPRPPWAPRP | 0.537
86 | RRIRCRPPRLPRPRPRPMQNPRP | 0.311
87 | RRIRDRPPRLPRPRPRPVSGPRP | 0.088
88 | RRIRWRPPRLPRPRPRPNCKPRP | -0.0223
89 | RRIRGRPPRLPRPRPRPDPIPRP | 0.126
90 | RRIRCRPPRLPRPRPRPWHWPRP | 0.0135
91 | RRIRARPPRLPRPRPRPIGPPRP | 0.537
